Results from patent publication US20200055896A1, “SUBSTRATES RECOGNIZED BY FIBROBLAST ACTIVATION PROTEIN (FAP) AND METHODS OF USING THE SAME” (GENENTECH, INC., priority 2017, published 2020).
No end group written: not given here.

Assays:
recombinant human PREP = target: T1, recombinant human PREP (Homo sapiens, UniProt P48147); experiment: FRET-quench assay: probe cleavage by recombinant human PREP; assay type: biochemical; conditions: 1 nM enzyme
T1 construct: purchased R&D Systems 4308-SE
T1 sequence (P48147 1-710): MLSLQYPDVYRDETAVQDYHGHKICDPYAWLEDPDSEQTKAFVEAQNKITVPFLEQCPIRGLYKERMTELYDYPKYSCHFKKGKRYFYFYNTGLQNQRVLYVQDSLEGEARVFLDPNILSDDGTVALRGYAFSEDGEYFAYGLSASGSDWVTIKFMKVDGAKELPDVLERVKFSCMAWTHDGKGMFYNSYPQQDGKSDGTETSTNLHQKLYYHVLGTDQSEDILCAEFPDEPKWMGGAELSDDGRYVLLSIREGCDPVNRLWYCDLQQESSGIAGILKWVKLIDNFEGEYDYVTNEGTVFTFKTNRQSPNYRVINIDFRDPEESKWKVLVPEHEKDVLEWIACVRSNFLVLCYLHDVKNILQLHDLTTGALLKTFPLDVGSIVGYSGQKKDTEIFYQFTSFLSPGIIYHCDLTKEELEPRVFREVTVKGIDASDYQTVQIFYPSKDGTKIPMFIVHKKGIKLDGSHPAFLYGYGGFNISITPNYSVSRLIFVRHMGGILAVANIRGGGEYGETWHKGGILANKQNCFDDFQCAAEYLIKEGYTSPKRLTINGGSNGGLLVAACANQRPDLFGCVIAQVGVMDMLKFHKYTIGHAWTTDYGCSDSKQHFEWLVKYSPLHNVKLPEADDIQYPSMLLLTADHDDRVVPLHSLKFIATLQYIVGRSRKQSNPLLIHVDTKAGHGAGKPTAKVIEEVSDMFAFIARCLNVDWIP
Source text: (§1) Human prolyl oligopeptidase (PREP, 4308-SE), DPPIV (1180-SE), DPP9 (5419-SE), and DPPII/DPP7 (3438-SE) proteins were purchased from R&D Systems. Human DPP8 (BML-SE527) protein was purchased from Enzo Life Sciences. N-terminal octa-His-tagged human and mouse FAP proteins containing the extracellular domain (residues L26-D760 and L26-D761, respectively) were purified from the conditioned media of transiently-transfected CHO cells, by immobilized metal affinity chromatography (IMAC), followed by size exclusion chromatography (SEC).
(§2) Peptides of the region flanking the C-terminal human FGF21 cleavage site (VGPSQG) or a variant with D-alanine at P2 (VaPSQG) were synthesized (Anaspec, Inc.), containing an amine-terminal donor (HyLite Fluor 488 or Cy5.5 for aP NIRF) and a dark quencher-acceptor (QXL 520 or QSY21 for aP NIRF) conjugated to a supplementary C-terminal lysine. ANPFAP (Bioconjugate Chem 23:1704-11) and aP NIRF were synthesized by CPC Scientific (Sunnyvale, Calif.). Assays were conducted at 37° C. in 50 mM HEPES (pH 7.2), 150 mM NaCl, 1 mM EDTA, 0.1 mg/ml BSA. The excitation/emission wavelengths of cleaved peptide are 490/520 nm or 675/695 nm for ANPFAP and aP NIRF. Fluorescence was monitored on a Tecan M1000 Pro plate reader in kinetic mode. Except where indicated otherwise, measurements of serum or plasma FAP activity were performed with the peptide substrate concentration at 6 μM and a 10-fold dilution of serum or plasma in assay buffer.

recombinant human FAP = target: T2, recombinant human FAP (Homo sapiens, UniProt Q12884); experiment: FRET-quench assay: probe cleavage by recombinant human FAP; assay type: biochemical; conditions: 1 nM enzyme
T2 construct: (residues L26-D760 and L26-D761, respectively); octa-His (N); made in house; host or cells: transiently transfected CHO cells (conditioned media)
T2 sequence (Q12884 26-760): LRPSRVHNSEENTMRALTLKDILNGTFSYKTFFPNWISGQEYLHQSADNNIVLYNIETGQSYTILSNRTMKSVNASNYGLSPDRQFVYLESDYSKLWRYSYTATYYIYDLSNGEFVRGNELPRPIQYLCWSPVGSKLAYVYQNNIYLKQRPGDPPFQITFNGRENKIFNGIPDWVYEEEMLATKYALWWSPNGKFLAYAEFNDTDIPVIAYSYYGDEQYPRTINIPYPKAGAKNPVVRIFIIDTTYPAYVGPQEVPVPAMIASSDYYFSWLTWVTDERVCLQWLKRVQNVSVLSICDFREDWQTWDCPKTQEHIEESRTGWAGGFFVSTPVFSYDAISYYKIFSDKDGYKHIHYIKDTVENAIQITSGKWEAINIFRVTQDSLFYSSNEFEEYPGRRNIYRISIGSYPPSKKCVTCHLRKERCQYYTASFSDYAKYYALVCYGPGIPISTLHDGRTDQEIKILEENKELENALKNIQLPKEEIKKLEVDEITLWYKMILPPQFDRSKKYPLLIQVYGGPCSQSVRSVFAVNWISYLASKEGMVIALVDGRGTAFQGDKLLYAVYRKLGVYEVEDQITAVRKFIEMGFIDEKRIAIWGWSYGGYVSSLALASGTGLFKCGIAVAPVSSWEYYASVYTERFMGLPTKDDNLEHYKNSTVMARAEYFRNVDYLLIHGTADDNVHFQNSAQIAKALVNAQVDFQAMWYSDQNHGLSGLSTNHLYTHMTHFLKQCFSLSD
Source text: as §1, §2

Substance	cleavage by recombinant human PREP (recombinant human PREP)	cleavage by recombinant human FAP (recombinant human FAP)
aP probe: FGF21-based peptide VaPSQG (D-alanine at P2) with HyLite Fluor 488 donor and QXL 520 quencher	unable to digest	clearly detectable
GP probe: human FGF21 cleavage-site peptide VGPSQG with amine-terminal HyLite Fluor 488 donor and QXL 520 quencher on supplementary C-terminal lysine ({HyLite Fluor 488}-VGPSQGK(QXL 520))	readily cleaved	readily cleaved
